Earlier results as cited in paper PMC9782320.

Target: plasmin (Homo sapiens) (UniProt P00747)
UniProt P00747, sequence (P00747 581-810): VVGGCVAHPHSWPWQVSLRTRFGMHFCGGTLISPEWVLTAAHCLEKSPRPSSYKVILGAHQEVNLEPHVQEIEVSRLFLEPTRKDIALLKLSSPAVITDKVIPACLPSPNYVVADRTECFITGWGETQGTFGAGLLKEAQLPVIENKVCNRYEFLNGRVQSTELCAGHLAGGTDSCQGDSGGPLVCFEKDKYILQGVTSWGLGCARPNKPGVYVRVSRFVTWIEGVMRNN

In the case of staphylokinase (from UniProt P68801), the Kd is listed as 10 nM.
